According to article PMC6795518:

Assays:
[1] = target: TcdB2-TccC3 from Photorhabdus luminescens (Pl-TcdB2-TccC3) (Photorhabdus luminescens) (UniProt Q8GF99); assay: BLI
[2] = target: XptA1 from Xenorhabdus nematophila (Xn-XptA1) (Xenorhabdus nematophila); assay: cryo-EM structure

Substance	Kd [1]	stoichiometry N [2]
TcdA1 from Photorhabdus luminescens (Pl-TcdA1), Q9RN43 1-2516	0.63 nM	–
TcdA4 from Morganella morganii (Mm-TcdA4) (natural protein)	11.3 nM	–
XptA1 from Xenorhabdus nematophila (Xn-XptA1) (natural protein)	1.99 nM	5
